# Values of other authors, collected in PMC9542338.
# Where two headings read alike, the source gives them in different places.
# What was measured:
# CD155 (Homo sapiens) [1] = target: CD155 (Homo sapiens) (UniProt P15151)
# CD155 (Homo sapiens) [2] = target: CD155 (Homo sapiens) (UniProt P15151); remark: listed apart in the source
Kd (CD155 (Homo sapiens) [1]) [nM],Kd (CD155 (Homo sapiens) [2]) [nM],Substance
115,–,CD226 (from UniProt Q15762)
–,2,TIGIT (from UniProt Q495A1)
